Source: PMC8368218 (Cell Discovery, 2021)
Where “and” joins values, the source holds several entries; their conditions need not be identical. Equal entries are not always repeated.

Key:
G3BP1^NTF2 [1] = molecular target: G3BP1^NTF2 (UniProt Q13283); assay: ITC
G3BP1^NTF2 [2] = molecular target: T1, G3BP1^NTF2 (UniProt Q13283 11-133); assay: ITC; conditions: both partners purified
T1 construct: also called NTF2 domain of G3BP1
T1 sequence (Q13283 11-133): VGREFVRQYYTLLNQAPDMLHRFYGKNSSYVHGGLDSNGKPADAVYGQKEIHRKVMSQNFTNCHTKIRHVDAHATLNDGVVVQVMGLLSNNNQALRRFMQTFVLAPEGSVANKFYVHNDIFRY

G3BP1^NTF2 (UniProt Q13283), sequence (Q13283 11-133): as above

Molecule: SARS-CoV-2 N^11–24 F/A (from UniProt P0DTC9 11-24) (domain or fragment)
- fold reduction of affinity against N^11–24 wild type (G3BP1^NTF2 [1]): 7 fold and 6 fold

Molecule: SARS-CoV-2 N^11–24 I/A (from UniProt P0DTC9 11-24) (domain or fragment)
- fold reduction of affinity against N^11–24 wild type (G3BP1^NTF2 [1]): 6 fold and 7 fold

B1: SARS-CoV-2 N^11–24 (domain or fragment)
chain: NAPRITFGGPSDST
notes: also called fragment from the N-IDR of N protein
- Kd (G3BP1^NTF2 [2]): ~10 µM
